The text below walks through data of publication PMC4357698.

One test has as its target 40S ribosomal subunit (UniProt P62841). Description: co-sedimentation.
In test [1] the target is 43S preinitiation complex reconstituted from purified components (UniProt P62841). As to the kind of experiment: co-sedimentation.

In the test with 40S ribosomal subunit, “human SRP9/14 protein dimer (from UniProt P49458 1-86; P37108 1-136) (complex)” yielded a share of h9/14 comigrating with the subunit (fraction of h9/14) of 0.33 and a stoichiometry N (binding sites on 40S) above 1. For the same substance, in test [1], the fold reduction of bound SRP9/14 against the scAluY^A RNP sample turned out to be 3 fold and the percent of SRP9/14 comigrating with the complex was determined as 15%.
